Test results reported in patent US11542479B2, “Alcohol dehydrogenase mutant and use thereof” (priority 2019, dated 2023).

Key:
Format in all cases: biochemical
[1] = molecular target: alcohol dehydrogenase (KpADH, SEQ ID NO: 1) mutant S5, Q136N/F161V/S196G/E214G/S237C (Vanderwaltozyma polyspora, UniProt A7TM80, E214G/F161V/Q136N/S196G/S237C); assay: Kinetic parameters in asymmetric reduction of (4-chlorophenyl)-(pyridin-2-yl)-methanone, mutant S5; settings: mutant S5 vs wild type, to (S)-alcohol
Description: (§1) The detection method of enzyme activity of the alcohol dehydrogenase is as follows:
(§2) A sodium phosphate buffer (PBS, 100 mM, pH 7.0) containing 1 mM NADPH and 1.0 mM substrate prochiral (4-chlorophenyl)-(pyridin-2-yl)-methanone is stood at 30° C. for 2 min, and then 10 μL of a pure enzyme solution is added to the sodium phosphate buffer, and reacted at 30° C. During the reaction, the change in absorbance of the reaction solution at 340 nm is measured on a microplate reader, and used to calculate the enzyme activity.
(§3) The initial reduction activity of wild-type alcohol dehydrogenase and alcohol dehydrogenase mutants M63, M64 and S5 obtained in Example 1 were respectively determined with 0.1-5 mM prochiral diaryl ketone (4-chlorophenyl)-(pyridin-2-yl)-methanone as a substrate. The data was fitted by the nonlinear regression method in Graph Pad Prism 7.0 software, to obtain the Km and Vmax in Michaelis-Menten equation. Then kcat and kcat/Km were calculated.
(§4) kcat is calculated by the formula kcat=Vmax·M/60, where M is the molecular weight of the enzyme, in kDa.

[2] = molecular target: alcohol dehydrogenase (KpADH, SEQ ID NO: 1) mutant M64, K36I/T132D/N159D/K210E/T248A/Q272L/Q136N/F161V/S196G/E214G/S237C (Vanderwaltozyma polyspora, UniProt A7TM80, E214G/F161V/K210E/K36I/N159D/Q136N/Q272L/S196G/S237C/T132D/T248A); assay: Kinetic parameters in asymmetric reduction of (4-chlorophenyl)-(pyridin-2-yl)-methanone, mutant M64
Description: as §1, §2, §3, §4

[3] = molecular target: alcohol dehydrogenase (KpADH, SEQ ID NO: 1) mutant M63, K36I/T132D/N159D/K210E/T248A/Q272L (Vanderwaltozyma polyspora, UniProt A7TM80, K210E/K36I/N159D/Q272L/T132D/T248A); assay: Kinetic parameters in asymmetric reduction of (4-chlorophenyl)-(pyridin-2-yl)-methanone, mutant M63; settings: mutant M63 vs wild-type alcohol dehydrogenase
Description: as §1, §2, §3, §4

[4] = system: O=C(c1ccc(Cl)cc1)c1ccccn1; assay: as above; settings: other: mutant M63; 0.1-5 mM substrate; pH 7.0; 30.0 °C
Description: as §1, §2, §3, §4

[5] = system: O=C(c1ccc(Cl)cc1)c1ccccn1; assay: Kinetic parameters in asymmetric reduction of (4-chlorophenyl)-(pyridin-2-yl)-methanone, mutant M64; settings: other: mutant M64; 0.1-5 mM substrate; pH 7.0; 30.0 °C
Description: as §1, §2, §3, §4

[6] = system: O=C(c1ccc(Cl)cc1)c1ccccn1; assay: Kinetic parameters in asymmetric reduction of (4-chlorophenyl)-(pyridin-2-yl)-methanone, mutant S5; settings: other: mutant S5; 0.1-5 mM substrate; pH 7.0; 30.0 °C
Description: as §1, §2, §3, §4

[7] = system: O=C(c1ccc(Cl)cc1)c1ccccn1; assay: Kinetic parameters in asymmetric reduction of (4-chlorophenyl)-(pyridin-2-yl)-methanone, wild type; settings: other: wild type; 0.1-5 mM substrate; pH 7.0; 30.0 °C
Description: as §1, §2, §3, §4

O=C(c1ccc(Cl)cc1)c1ccccn1 [(4-chlorophenyl)-(pyridin-2-yl)-methanone]
catalytic efficiency compared with wild type [1]: decreased compared with the wild type | catalytic efficiency relative to mutant S5 ([2]; mutant M64 vs mutant S5): 1.35 times | catalytic efficiency compared with wild type ([2]; mutant M64 vs wild type, to (S)-alcohol): close to that of the wild type | catalytic efficiency relative to wild type [3]: 1.3 times

alcohol dehydrogenase (KpADH, SEQ ID NO: 1) mutant M63, K36I/T132D/N159D/K210E/T248A/Q272L (Vanderwaltozyma polyspora DSM 70294; K210E/K36I/N159D/Q272L/T132D/T248A)
Km [4]: 830 ± 200 µM | Vmax [4]: 32.8 µmol/min/mg | kcat [4]: 22.8 ± 2.14 s⁻¹ | kcat/Km [4]: 27500 M⁻¹ s⁻¹

alcohol dehydrogenase (KpADH, SEQ ID NO: 1) mutant M64, K36I/T132D/N159D/K210E/T248A/Q272L/Q136N/F161V/S196G/E214G/S237C (Vanderwaltozyma polyspora DSM 70294; E214G/F161V/K210E/K36I/N159D/Q136N/Q272L/S196G/S237C/T132D/T248A)
Km [5]: 860 ± 140 µM | Vmax [5]: 25.1 µmol/min/mg | kcat [5]: 17.4 ± 1.1 s⁻¹ | kcat/Km [5]: 20300 M⁻¹ s⁻¹

alcohol dehydrogenase (KpADH, SEQ ID NO: 1) mutant S5, Q136N/F161V/S196G/E214G/S237C (Vanderwaltozyma polyspora DSM 70294; E214G/F161V/Q136N/S196G/S237C)
Km [6]: 1090 ± 100 µM | Vmax [6]: 24.4 µmol/min/mg | kcat [6]: 16.1 ± 1.7 s⁻¹ | kcat/Km [6]: 14800 M⁻¹ s⁻¹

wild-type alcohol dehydrogenase (KpADH), SEQ ID NO: 1 (Vanderwaltozyma polyspora DSM 70294)
Km [7]: 950 ± 100 µM | Vmax [7]: 31.8 µmol/min/mg | kcat [7]: 20.1 ± 1 s⁻¹ | kcat/Km [7]: 21200 M⁻¹ s⁻¹
